B1: ZR4-ΔN (SEQ ID NO: 3), histidine-tagged (peptide)
peptide: SFFNKR
notes: ZR derivative with one Asn deleted; not shown: histidine tag
B2: ZR + N (SEQ ID NO: 5), histidine-tagged (peptide)
peptide: SFFNNNKR
notes: ZR derivative with one more Asn; not shown: histidine tag
B3: ZR + K (SEQ ID NO: 6), histidine-tagged (peptide)
peptide: SFFNNKRK
notes: ZR derivative with a Lys added after Arg7; not shown: histidine tag

Biological target: T1, Aβ42 oligomers (UniProt P05067 672-713)
T1 construct: domain: Aβ42; Oligomeric state
T1 sequence (P05067 672-713 limits assumed): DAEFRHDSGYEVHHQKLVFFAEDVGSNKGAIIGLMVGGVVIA
Test: ELISA on coated Aβ42 oligomers, His-tagged polypeptide at 1 µg per well
Protocol: 100 μL of monomers, oligomers or fibers of Aβ42, PrP, amylin, insulin or lysozyme were respectively coated onto a 96-well ELISA microplate at 1 μg/well, BSA was used as a negative control. The plate were then placed at 37° C. for 2 h, blocked with 200 μL/well of 3% BSA at 37° C. for 2 h, and washed 3 times with PBS. 100 μL of histidine-tagged ZR polypeptide solution was added, and the plate was incubated at room temperature for 1 h, and then washed 3 times with PBS containing 0.1% Tween-20. 100 μL of HRP-linked antibody 9E10 which can recognize the histidine tag was added to each well, and the plate was incubated at room temperature for 1 h, and then washed 3 times with PBS containing 0.1% Tween-20. 100 μL of TMB was added to each well, and the plate was placed at 37° C. for 20 min. Then, 50 μL of 1 mmol/L sulfuric acid was added to each well to terminate the reaction, and OD450 values were measured using a microplate reader. The above procedure was repeated for 3 times under the same condition.

Going from B1 to SAFQNKR (not shown: histidine tag) [ZR4-FN/AQ (SEQ ID NO: 4), histidine-tagged], the OD450 falls from 0.49 to 0.47.

Compared with B2, B3 is higher in OD450: 0.54 for the first, 0.56 for the second.
